According to the supplement of paper PMC9112550, “Optimization of the antimicrobial peptide Bac7 by deep mutational scanning” (BMC Biology, 2022):

system: Escherichia coli TOP10; assay: shrunken log2 fold change of peptide-encoding DNA abundance (4.5 h post-induction vs induction); higher = less antimicrobial activity (less host growth inhibition); conditions: time post-induction: 4.5 h; library: site-saturation at positions 5, 18, 19, 20
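Further: peptides expressed intracellularly from a pBAD plasmid library in pooled LB shake-flask culture, induced with 0.3% L-arabinose, DNA abundance read by NGS, three biological replicates, DESeq2 with apeglm shrinkage.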

Sequence | shrunken log2 fold change
RRIRGRPPRLPRPRPRPTQDPRP | 1.34
RRIRGRPPRLPRPRPRPTQFPRP | 0.772
RRIRGRPPRLPRPRPRPTQHPRP | 0.855
RRIRGRPPRLPRPRPRPTQVPRP | 0.353
RRIRGRPPRLPRPRPRPTRAPRP | 1.04
RRIRGRPPRLPRPRPRPTRIPRP | 0.901
RRIRGRPPRLPRPRPRPTSRPRP | 0.336
RRIRGRPPRLPRPRPRPTSVPRP | 0.197
RRIRGRPPRLPRPRPRPTWHPRP | 0.468
RRIRGRPPRLPRPRPRPVCTPRP | 0.73
RRIRGRPPRLPRPRPRPVEIPRP | 0.177
RRIRGRPPRLPRPRPRPVELPRP | 0.354
RRIRGRPPRLPRPRPRPVGVPRP | 1.08
RRIRGRPPRLPRPRPRPVHHPRP | -0.0799
RRIRGRPPRLPRPRPRPVHIPRP | -0.165
RRIRGRPPRLPRPRPRPVHNPRP | 0.259
RRIRGRPPRLPRPRPRPVHRPRP | -0.0492
RRIRGRPPRLPRPRPRPVISPRP | 0.623
RRIRGRPPRLPRPRPRPVIWPRP | 0.886
RRIRGRPPRLPRPRPRPVLGPRP | 0.343
RRIRGRPPRLPRPRPRPVMNPRP | 0.434
RRIRGRPPRLPRPRPRPVMVPRP | 0.128
RRIRGRPPRLPRPRPRPVNMPRP | 0.189
RRIRGRPPRLPRPRPRPVTGPRP | 0.21
RRIRGRPPRLPRPRPRPVTKPRP | 0.661

Sequence | shrunken log2 fold change
RRIRGRPPRLPRPRPRPVVKPRP | 0.246
RRIRGRPPRLPRPRPRPVVLPRP | 0.4
RRIRGRPPRLPRPRPRPVYFPRP | -0.0244
RRIRGRPPRLPRPRPRPWADPRP | 0.142
RRIRGRPPRLPRPRPRPWCAPRP | 0.407
RRIRGRPPRLPRPRPRPWCEPRP | 0.0333
RRIRGRPPRLPRPRPRPWCGPRP | 0.58
RRIRGRPPRLPRPRPRPWCQPRP | 0.224
RRIRGRPPRLPRPRPRPWDPPRP | -0.11
RRIRGRPPRLPRPRPRPWEQPRP | 0.724
RRIRGRPPRLPRPRPRPWGDPRP | 0.41
RRIRGRPPRLPRPRPRPWGRPRP | 0.413
RRIRGRPPRLPRPRPRPWGTPRP | 0.0721
RRIRGRPPRLPRPRPRPWHEPRP | -0.357
RRIRGRPPRLPRPRPRPWKDPRP | 0.000655
RRIRGRPPRLPRPRPRPWLRPRP | 0.306
RRIRGRPPRLPRPRPRPWMRPRP | 0.444
RRIRGRPPRLPRPRPRPWNHPRP | -0.052
RRIRGRPPRLPRPRPRPWNMPRP | -0.0271
RRIRGRPPRLPRPRPRPWQHPRP | -0.0318
RRIRGRPPRLPRPRPRPWRIPRP | -0.15
RRIRGRPPRLPRPRPRPWTYPRP | 0.0864
RRIRGRPPRLPRPRPRPWVAPRP | -0.026
RRIRGRPPRLPRPRPRPWVMPRP | 0.0476
RRIRGRPPRLPRPRPRPWWIPRP | 0.0656

Sequence | shrunken log2 fold change
RRIRGRPPRLPRPRPRPWWVPRP | 0.0839
RRIRGRPPRLPRPRPRPWYYPRP | -0.148
RRIRGRPPRLPRPRPRPYACPRP | -0.00589
RRIRGRPPRLPRPRPRPYALPRP | 0.0375
RRIRGRPPRLPRPRPRPYCYPRP | 0.0406
RRIRGRPPRLPRPRPRPYDSPRP | 0.0118
RRIRGRPPRLPRPRPRPYFWPRP | 0.0833
RRIRGRPPRLPRPRPRPYGYPRP | 0.158
RRIRGRPPRLPRPRPRPYIHPRP | -0.252
RRIRGRPPRLPRPRPRPYISPRP | -0.325
RRIRGRPPRLPRPRPRPYNCPRP | -0.0269
RRIRGRPPRLPRPRPRPYNMPRP | -0.531
RRIRGRPPRLPRPRPRPYQQPRP | 0.0771
RRIRGRPPRLPRPRPRPYREPRP | 0.00752
RRIRGRPPRLPRPRPRPYSNPRP | 0.0659
RRIRGRPPRLPRPRPRPYSSPRP | -0.223
RRIRGRPPRLPRPRPRPYTMPRP | -0.342
RRIRGRPPRLPRPRPRPYTVPRP | 0.0498
RRIRGRPPRLPRPRPRPYVGPRP | 0.0053
RRIRGRPPRLPRPRPRPYVLPRP | -0.114
RRIRGRPPRLPRPRPRPYWDPRP | -0.26
RRIRGRPPRLPRPRPRPYYLPRP | -0.791
RRIRGRPPRLPRPRPRPYYVPRP | -0.0871
RRIRHRPPRLPRPRPRPADQPRP | 0.0188
RRIRHRPPRLPRPRPRPAEAPRP | -0.0896

Sequence | shrunken log2 fold change
RRIRHRPPRLPRPRPRPAEDPRP | 0.262
RRIRHRPPRLPRPRPRPAEEPRP | 0.175
RRIRHRPPRLPRPRPRPAFSPRP | -0.0483
RRIRHRPPRLPRPRPRPAGYPRP | -0.0739
RRIRHRPPRLPRPRPRPAHEPRP | 0.0538
RRIRHRPPRLPRPRPRPAHLPRP | 0.0167
RRIRHRPPRLPRPRPRPAIIPRP | -0.113
RRIRHRPPRLPRPRPRPAIYPRP | -0.798
RRIRHRPPRLPRPRPRPALQPRP | 0.0339
RRIRHRPPRLPRPRPRPAMDPRP | -0.221
RRIRHRPPRLPRPRPRPAMEPRP | 0.0691
RRIRHRPPRLPRPRPRPANQPRP | -0.0712
RRIRHRPPRLPRPRPRPANRPRP | -0.129
RRIRHRPPRLPRPRPRPAPIPRP | 0.31
RRIRHRPPRLPRPRPRPAPKPRP | -0.164
RRIRHRPPRLPRPRPRPAQMPRP | 0.127
RRIRHRPPRLPRPRPRPASRPRP | 0.103
RRIRHRPPRLPRPRPRPASVPRP | -0.00985
RRIRHRPPRLPRPRPRPAVPPRP | 0.0133
RRIRHRPPRLPRPRPRPAVTPRP | -0.1
RRIRHRPPRLPRPRPRPAWTPRP | -0.136
RRIRHRPPRLPRPRPRPAYHPRP | -0.274
RRIRHRPPRLPRPRPRPAYPPRP | -0.37
RRIRHRPPRLPRPRPRPCATPRP | 0.0959
RRIRHRPPRLPRPRPRPCCKPRP | 1.89

Sequence | shrunken log2 fold change
RRIRHRPPRLPRPRPRPCDKPRP | -0.113
RRIRHRPPRLPRPRPRPCESPRP | 0.0295
RRIRHRPPRLPRPRPRPCFKPRP | -1.25
RRIRHRPPRLPRPRPRPCGLPRP | -0.0199
RRIRHRPPRLPRPRPRPCGSPRP | -0.153
RRIRHRPPRLPRPRPRPCLGPRP | 0.0158
RRIRHRPPRLPRPRPRPCLMPRP | -0.0298
RRIRHRPPRLPRPRPRPCLVPRP | 0.214
RRIRHRPPRLPRPRPRPCMAPRP | -0.213
RRIRHRPPRLPRPRPRPCNFPRP | -0.74
RRIRHRPPRLPRPRPRPCPEPRP | 0.037
RRIRHRPPRLPRPRPRPCQVPRP | -0.345
RRIRHRPPRLPRPRPRPCRSPRP | -0.0622
RRIRHRPPRLPRPRPRPCTCPRP | -0.0115
RRIRHRPPRLPRPRPRPCTGPRP | 0.00233
RRIRHRPPRLPRPRPRPCVGPRP | 0.116
RRIRHRPPRLPRPRPRPCVIPRP | -0.0839
RRIRHRPPRLPRPRPRPCWEPRP | 0.153
RRIRHRPPRLPRPRPRPCWLPRP | -0.0661
RRIRHRPPRLPRPRPRPDAHPRP | -0.119
RRIRHRPPRLPRPRPRPDANPRP | 0.152
RRIRHRPPRLPRPRPRPDDFPRP | -0.198
RRIRHRPPRLPRPRPRPDDWPRP | -0.0115
RRIRHRPPRLPRPRPRPDEWPRP | -0.000921
RRIRHRPPRLPRPRPRPDFTPRP | -0.0849

Sequence | shrunken log2 fold change
RRIRHRPPRLPRPRPRPDGHPRP | -0.0262
RRIRHRPPRLPRPRPRPDIIPRP | -0.0233
RRIRHRPPRLPRPRPRPDIQPRP | -0.0379
RRIRHRPPRLPRPRPRPDKCPRP | -0.0295
RRIRHRPPRLPRPRPRPDLKPRP | -0.0314
RRIRHRPPRLPRPRPRPDMCPRP | -0.173
RRIRHRPPRLPRPRPRPDMYPRP | -0.00022
RRIRHRPPRLPRPRPRPDNKPRP | -0.27
RRIRHRPPRLPRPRPRPDQQPRP | 0.0104
RRIRHRPPRLPRPRPRPDRHPRP | -0.159
RRIRHRPPRLPRPRPRPDRLPRP | -0.0627
RRIRHRPPRLPRPRPRPDRQPRP | -0.135
RRIRHRPPRLPRPRPRPDSAPRP | -0.216
RRIRHRPPRLPRPRPRPDTGPRP | -0.014
RRIRHRPPRLPRPRPRPDTNPRP | 0.102
RRIRHRPPRLPRPRPRPDVAPRP | -0.00146
RRIRHRPPRLPRPRPRPDVRPRP | -0.00783
RRIRHRPPRLPRPRPRPDVYPRP | 0.0592
RRIRHRPPRLPRPRPRPDYCPRP | -0.01
RRIRHRPPRLPRPRPRPDYHPRP | -0.336
RRIRHRPPRLPRPRPRPDYPPRP | -0.111
RRIRHRPPRLPRPRPRPECRPRP | 0.0764
RRIRHRPPRLPRPRPRPECWPRP | 0.514
RRIRHRPPRLPRPRPRPEDTPRP | 0.0437
RRIRHRPPRLPRPRPRPEELPRP | -0.00776
